Source: patent publication US12065466B2, “Methods and compositions for protein sequencing” (Quantum-Si Incorporated, priority 2020, dated 2024)
Changes are numbered by the printed parent chain. In names and notes the source's numbering stands.

B1: PS575: PS372-homologous ClpS protein, SEQ ID NO: 89 (protein, listed as Leptospira kmetyi)
chain: MASTQTPDLNEITEESTKSTGGPWRVVLWDDNEHTYEYVIEMLMEICTMTVEKAFLHAVQVDQEKRTVVFSGEFEHAEHVQERILTYGADPRMSNSKGSMSATLEK
B2: PS576: PS372-homologous ClpS protein, SEQ ID NO: 90 (protein)
chain: B1 chain with M44V, T48M, Q63K, V69D, F74L, T86N, K106R
modifications: Leptospira interrogans
B3: PS578: PS372-homologous ClpS protein, SEQ ID NO: 92 (protein, listed as Planctomycetes bacterium)
chain: MSGTVVESKPRNSTQLAPRWKVIVHDDPVTTFDFVLGVLRRVFAKPPGEARRITREAHDTGSALVDVLALEQAEFRRDQAHSLARAEGFPLTLTLEPAD
B4: PS562: PS372-homologous ClpS protein, SEQ ID NO: 76 (protein, listed as Rubripirellula amarantea)
chain: MSDQQSMVAEPEVVVHTQDEKKLEKQNKRKKQPRYNVVLWDDTDHSYDYVVLMMKQLFHHPIETGFQIAKQVDKGGKAICLTTTMEHAELKRDQIHAFGKDDLIARCTGSMSATIEPVPE
B5: PS574: PS372-homologous ClpS protein, SEQ ID NO: 88 (protein, listed as Gemmata obscuriglobus)
chain: MANATPTPDVVPEEETETRTRRQPPYAVVLHNDDTNTMDFVVTVLRKVFGYTVEKCVELMLEAHTQGKVAVWIGALEVAELKADQIKSFGPDPHVTKNGHPLGVTVEPAA
B6: PS572: PS372-homologous ClpS protein, SEQ ID NO: 86 (protein, listed as Blastopirellula marina)
chain: MSSEELSLQTRPKRQPPFGVILHNDDLNSFDYVIDSIRKVFHYELEKCFQLTLEAHETGRSLLWTGTLEGAELKQELLLSCGPDPIMLDKGGLPLKVTLEELPQ
B7: atClpS2: Agrobacterium tumifaciens ClpS2, SEQ ID NO: 94 (protein, listed as Agrobacterium tumifaciens)
chain: MSDSPVDLKPKPKVKPKLERPKLYKVMLLNDDYTPREFVTVVLKAVFRMSEDTGRRVMMTAHRFGSAVVVVCERDIAETKAKEATDLGKEAGFPLMFTTEPEE
B8: atClpS2-V1 + C72S: ClpS protein, SEQ ID NO: 101 (protein)
chain: B7 chain with R36M, E37S, C72S
B9: atClpS2 C72S: ClpS protein, SEQ ID NO: 100 (protein)
chain: B7 chain with C72S
B10: atClpS1 C7S: ClpS protein, SEQ ID NO: 103 (protein)
chain: MIAEPISMQGEGDGEDGGTNRGTSVITRVKPKTKRPNLYRVLLLNDDYTPMEFVIHILERFFQKDREAATRIMLHVHQHGVGECGVFTYEVAETKVSQVMDFARQHQHPLQCVMEKK
B11: atClpS1 C7S, C84S, C112S: ClpS protein, SEQ ID NO: 104 (protein)
chain: B10 chain with C84S, C112S
B12: PS564: PS372-homologous ClpS protein, SEQ ID NO: 78 (protein)
chain: MFEEVVSVAVAEPKTKKQSRTKPKRQPPYHVILWDDTDHTFDYVIKMMGELFRMPREKGYQLAKEVDTSGRAICMTTTLELAELKRDQIHAFGRDDASAHCKGSMSATIEPAEG
modifications: Planctomycetes bacterium Poly21
B13: PS375: ClpS protein, SEQ ID NO: 8 (protein)
chain: MEAEPETKVLASIPGVGTSEPFRVVLFNDEEHSFDEVIFQIIKAVRCSRAKAEALTMEVHNSGRSIVYTGPIEQCIRVSAVLEEIELRTEIQS
B14: PS569: PS372-homologous ClpS protein, SEQ ID NO: 83 (protein, listed as Planctomycetes bacterium)
chain: MYSKNQIKIYCSEDDKGQTATPLLEKKPKFAPLYHVILWDDNTHTYEYVIKLLMSLFRMTFEKAYQHTLEVDKKGRTICITTHLEKAELKQEQISNFGPDILMQNSKGPMSATIEPAN
B15: PS573: PS372-homologous ClpS protein, SEQ ID NO: 87 (protein, listed as Leptospira fluminis)
chain: MSQTPVIEETTVKDPVKTGGPWKVVLWDDDEHTYDYVIEMLMEVCVMTMEQAFHHAVEVDTQKKTVVYSGEFEHAEHIQELILEYGPDPRMAVSKGSMSATLEKS
B16: PS570: PS372-homologous ClpS protein, SEQ ID NO: 84 (protein, listed as Leptospira congkakensis)
chain: MTGAGASQPSILEETEVRPRLSDGPWKVVLWDDDFHTYEYVIEMLMDVCQMPWEKAFQHAVEVDTRKKTIVFSGELEHAEFVHERILNYGPDPRMGSSKGSMTATLEQ
B17: PS571: PS372-homologous ClpS protein, SEQ ID NO: 85 (protein, listed as Leptospira meyeri)
chain: B16 chain with G3S, A4S, V17R, R18K, S73F, S97T, Q108K
B18: PS577: PS372-homologous ClpS protein, SEQ ID NO: 91 (protein, listed as Tuwongella immobilis)
chain: MSASSSQPGTTTKPDLDIQPRLLPPFHVILENDEFHSMEFVIDTLRKVLGVSIERAYQLMMTAHESGQAIIWTGPKEVAELKYEQVIGFHEKRSDGRDLGPLGCRIEPAV
B19: PS568: PS372-homologous ClpS protein, SEQ ID NO: 82 (protein, listed as Dehalococcoidia bacterium)
chain: MTTPSLPTRETEVEERTEVEPERLYHLVLLDDDQHSYQYVIEMLASIFGYGSEKAWTLARIVDTEGRAILETASHAQCERHQSQIHAYGADSRIPTSVGSMSAVIEEAGTPPQT
B20: Escherichia coli ClpS: ClpS protein, SEQ ID NO: 108 (protein, listed as Escherichia coli)
chain: MGKTNDWLDFDQLAEEKVRDALKPPSMYKVILVNDDYTPMEFVIDVLQKFFSYDVERATQLMLAVHYQGKAICGVFTAEVAETKVAMVNKYARENEHPLLCTLEKA
B21: PS565: PS372-homologous ClpS protein, SEQ ID NO: 79 (protein)
chain: MSEFDHEHSGDTSVADPIVTTKTAPKPQKHAENETETRRQPPYNVIILNDEEHTFDYVIELLCKVFRHSLATAQELTWRIHLTGRAVVLTTHKELAELKRDQVLAYGPDPRMSVSKGPLDCFIEPAPGG
modifications: Aquisphaera sp. JC650
B22: PS376: ClpS protein, SEQ ID NO: 9 (protein)
chain: MPTNDLDLLEKQDVKIERPKMYQVVMYNDDFTPFDFVVAVLMQFFNKGMDEATAIMMQVHMQGKGICGVFPKDIAETKATEVMKWAKVEQHPLRLQVEAQA
B23: Synechococcus elongatus ClpS1: ClpS protein, SEQ ID NO: 105 (protein, listed as Synechococcus elongatus)
chain: MAVETIQKPETTTKRKIAPRYRVLLHNDDFNPMEYVVMVLMQTVPSLTQPQAVDIMMEAHTNGTGLVITCDIEPAEFYCEQLKSHGLSSSIEPDD
B24: PS374: ClpS protein, SEQ ID NO: 7 (protein)
chain: MRWEDPLAAEPVTPGVAPVVEEETDAAVETPWRVILYDDDIHTFEEVILQLMKATGCTPEQGERHAWTVHTRGKDCVYQGDFFDCFRVQGVLREIQLVTEIEG
B25: PS566: PS372-homologous ClpS protein, SEQ ID NO: 80 (protein, listed as Planctomycetaceae bacterium)
chain: MSSPSSLDDVQVSTSRAKPANETRTRKQPPYAVIVENDDHHTFLYVIEALMKVCGHAPEKGFVLAQQIHTQGKAMVWSGTLELAELKRDQLRGFGPDNYAPRPVTFPLGVTIEPLP
B26: PS563: PS372-homologous ClpS protein, SEQ ID NO: 77 (protein, listed as Acidobacteria bacterium)
chain: MSSRSATAYPEVEDDTSDQLQPLYHVILLNDEDHTYDYVIEMLQKIFGFPESKAFSHAVEVDTKGTTILLTCDLEQAERKRDLIHSYGPDWRLPRSLGSMAAVVEPAAG
B27: PS567: PS372-homologous ClpS protein, SEQ ID NO: 81 (protein, listed as Planctomycetaceae bacterium)
chain: MADYEDAGEDALEDDFDHGTVTVAPQKPEPKKQSENKRQANRQPRYNVLLWDSEDHTFEYVEKMLRELFGHIKKQCQIIAEQVDQEGRAVVLTTTLEHAELKRDQIHAYGKDQLEGSKGSMWSTIEAVD
B28: PS561: PS372-homologous ClpS protein, SEQ ID NO: 75 (protein)
chain: MAELQTAVVEPTTRPEQDEKQSQSRPKRQPRYNVILWDDPDHSYDYVIMMLKELFGHPRQRGHQMAEEVDTTGRVICLTTTMEHAELKRDQIHAYGSDEGITRCKGSMSASIEPVPE
modifications: Roseimaritima sp. JC651

Test system: amino acid at a terminal position of a polypeptide
Assay: Amino acid binding preference of recognition proteins (Tables 1 and 2)
Details: Table 1, ClpS proteins; amino acid identity at a terminal position of a polypeptide; inferred from literature and/or demonstrated by the inventors
Excerpt: It should be appreciated that these sequences and other examples described herein are meant to be non-limiting, and recognition molecules in accordance with the application can include any homologs, variants thereof, or fragments thereof minimally containing domains or subdomains responsible for peptide recognition.

Row | Molecule | Binding Pref.
1 | B1 | I, L, V
2 | B2 | I, L, V
3 | B3 | I, L, V
4 | B4 | I, L, V
5 | B5 | I, L, V
6 | B6 | I, L, V
7 | B7 | F, W, Y
8 | B8 | F, W, Y
9 | B9 | F, W, Y
10 | B10 | F, W, Y, L
11 | B11 | F, W, Y, L
12 | B12 | I, L, V
13 | B13 | F, L
14 | B14 | I, L, V
15 | B15 | I, L, V
16 | B16 | I, L, V
17 | B17 | I, L, V
18 | B18 | I, L, V
19 | B19 | I, L, V
20 | B20 | F, W, Y, L
21 | B21 | I, L, V
22 | B22 | F, W, L
23 | B23 | F, W, Y
24 | B24 | F, Y, W, L
25 | B25 | I, L, V
26 | B26 | I, L, V
27 | B27 | I, L, V
28 | B28 | I, L, V
